# Biological target: 重组人OPN-R (OPN-N端蛋白, 重组骨桥蛋白N端活性结构域 osteopontin I17-R167) (human)
# Assay: ForteBio BLI, biotinylated OPN-R on streptavidin sensor, antibody at 50-300 nmol/L, 1:1 model
# Sequence of 重组人OPN-R (OPN-N端蛋白, 重组骨桥蛋白N端活性结构域 osteopontin I17-R167) (human) (chain, as listed by the source): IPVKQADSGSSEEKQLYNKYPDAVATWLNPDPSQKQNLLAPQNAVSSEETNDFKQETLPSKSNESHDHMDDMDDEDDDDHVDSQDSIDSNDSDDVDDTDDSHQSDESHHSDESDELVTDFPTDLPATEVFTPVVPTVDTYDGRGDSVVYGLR
binder,measurement,value
"抗OPN嵌合抗体(抗体72B) (antibody, V domains shown, Mouse/human IgG1 chimera made by overlap PCR and expressed in HEK293E; also called 72B抗体; OPN-Ab(72B)) VH: EVMLVESGGGLLKPGGSLKLSCAASGFTFSSYAMSWVRQTPEKRLEWVATITSGGSYTNYSDSVKGRITISRDNAKNTLYLQMSSLRSEDTAMYYCAREGPAWFAYWGQGTLVTVSA VL: DIVMTQTPLSLPVSLGDQASISCRSSQSIVHSNGNTYLEWYLQKPGQSPKLLIYKVSNRFSGVPDRFSGSGSGTDFTLKISRVEAEDLGVYYCFQGSHVPPTFGGGTKLEIKR",Kd,4.55 nM

# Reference: patent CN112480250A (UNIV SHANGHAI JIAOTONG, dated 2021)
